According to patent publication US20110171126A1:

Assays:
[1] = molecular target: HLA-DR as expressed by cancer cell lines (human); assay: cell-based or functional assay
[2] = molecular target: HLA-DR as expressed by cancer cell lines (human); assay: flow cytometry, surface, RL cells
[3] = molecular target: HLA-DR as expressed by cancer cell lines (human); assay: flow cytometry, surface, CAG cells
[4] = molecular target: HLA-DR as expressed by cancer cell lines (human); assay: flow cytometry, surface, U87 cells
[5] = molecular target: HLA-DR as expressed by cancer cell lines (human); assay: flow cytometry, surface, HT29 cells
[6] = molecular target: HLA-DR as expressed by cancer cell lines (human); assay: flow cytometry, surface, Lovo cells
[7] = molecular target: HLA-DR as expressed by cancer cell lines (human); assay: flow cytometry, surface, U118 cells
[8] = molecular target: HLA-DR as expressed by cancer cell lines (human); assay: flow cytometry, surface, FSCCL cells
[9] = molecular target: HLA-DR as expressed by cancer cell lines (human); assay: flow cytometry, surface, KMS11 cells
[10] = molecular target: HLA-DR as expressed by cancer cell lines (human); assay: flow cytometry, surface, Moser cells
[11] = molecular target: HLA-DR as expressed by cancer cell lines (human); assay: flow cytometry, surface, TU118 cells
[12] = molecular target: HLA-DR as expressed by cancer cell lines (human); assay: flow cytometry, surface, Aspc-1 cells
[13] = molecular target: HLA-DR as expressed by cancer cell lines (human); assay: flow cytometry, surface, BxPC-3 cells
[14] = molecular target: HLA-DR as expressed by cancer cell lines (human); assay: flow cytometry, surface, LS174T cells
[15] = molecular target: HLA-DR as expressed by cancer cell lines (human); assay: flow cytometry, surface, Panc-1 cells
[16] = molecular target: HLA-DR as expressed by cancer cell lines (human); assay: flow cytometry, surface, Capan-1 cells
[17] = molecular target: HLA-DR as expressed by cancer cell lines (human); assay: flow cytometry, surface, RL cells + IFNγ
[18] = molecular target: HLA-DR as expressed by cancer cell lines (human); assay: flow cytometry, surface, CAG cells + IFNγ
[19] = molecular target: HLA-DR as expressed by cancer cell lines (human); assay: flow cytometry, surface, U87 cells + IFNγ
[20] = molecular target: HLA-DR as expressed by cancer cell lines (human); assay: flow cytometry, surface, HT29 cells + IFNγ
[21] = molecular target: HLA-DR as expressed by cancer cell lines (human); assay: flow cytometry, surface, Lovo cells + IFNγ
[22] = molecular target: HLA-DR as expressed by cancer cell lines (human); assay: flow cytometry, surface, U118 cells + IFNγ
[23] = molecular target: HLA-DR as expressed by cancer cell lines (human); assay: flow cytometry, surface, Capan cells + IFNγ
[24] = molecular target: HLA-DR as expressed by cancer cell lines (human); assay: flow cytometry, surface, FSCCL cells + IFNγ
[25] = molecular target: HLA-DR as expressed by cancer cell lines (human); assay: flow cytometry, surface, KMS11 cells + IFNγ
[26] = molecular target: HLA-DR as expressed by cancer cell lines (human); assay: flow cytometry, surface, Moser cells + IFNγ
[27] = molecular target: HLA-DR as expressed by cancer cell lines (human); assay: flow cytometry, surface, TU118 cells + IFNγ
[28] = molecular target: HLA-DR as expressed by cancer cell lines (human); assay: flow cytometry, surface, Aspc-1 cells + IFNγ
[29] = molecular target: HLA-DR as expressed by cancer cell lines (human); assay: flow cytometry, surface, BxPC-3 cells + IFNγ
[30] = molecular target: HLA-DR as expressed by cancer cell lines (human); assay: flow cytometry, surface, LS174T cells + IFNγ
[31] = molecular target: HLA-DR as expressed by cancer cell lines (human); assay: flow cytometry, surface, Panc-1 cells + IFNγ
[32] = molecular target: HLA-DR as expressed by cancer cell lines (human); assay: flow cytometry, permeabilized (cytoplasmic), RL cells
[33] = molecular target: HLA-DR as expressed by cancer cell lines (human); assay: flow cytometry, permeabilized (cytoplasmic), CAG cells
[34] = molecular target: HLA-DR as expressed by cancer cell lines (human); assay: flow cytometry, permeabilized (cytoplasmic), U87 cells
[35] = molecular target: HLA-DR as expressed by cancer cell lines (human); assay: flow cytometry, permeabilized (cytoplasmic), HT29 cells
[36] = molecular target: HLA-DR as expressed by cancer cell lines (human); assay: flow cytometry, permeabilized (cytoplasmic), Lovo cells
[37] = molecular target: HLA-DR as expressed by cancer cell lines (human); assay: flow cytometry, permeabilized (cytoplasmic), U118 cells
[38] = molecular target: HLA-DR as expressed by cancer cell lines (human); assay: flow cytometry, permeabilized (cytoplasmic), FSCCL cells
[39] = molecular target: HLA-DR as expressed by cancer cell lines (human); assay: flow cytometry, permeabilized (cytoplasmic), KMS11 cells
[40] = molecular target: HLA-DR as expressed by cancer cell lines (human); assay: flow cytometry, permeabilized (cytoplasmic), Moser cells
[41] = molecular target: HLA-DR as expressed by cancer cell lines (human); assay: flow cytometry, permeabilized (cytoplasmic), TU118 cells
[42] = molecular target: HLA-DR as expressed by cancer cell lines (human); assay: flow cytometry, permeabilized (cytoplasmic), Aspc-1 cells
[43] = molecular target: HLA-DR as expressed by cancer cell lines (human); assay: flow cytometry, permeabilized (cytoplasmic), BxPC-3 cells
[44] = molecular target: HLA-DR as expressed by cancer cell lines (human); assay: flow cytometry, permeabilized (cytoplasmic), LS174T cells
[45] = molecular target: HLA-DR as expressed by cancer cell lines (human); assay: flow cytometry, permeabilized (cytoplasmic), Panc-1 cells
[46] = molecular target: HLA-DR as expressed by cancer cell lines (human); assay: flow cytometry, permeabilized (cytoplasmic), Capan-1 cells
[47] = molecular target: HLA-DR as expressed by cancer cell lines (human); assay: flow cytometry, permeabilized (cytoplasmic), RL cells + IFNγ
[48] = molecular target: HLA-DR as expressed by cancer cell lines (human); assay: flow cytometry, permeabilized (cytoplasmic), CAG cells + IFNγ
[49] = molecular target: HLA-DR as expressed by cancer cell lines (human); assay: flow cytometry, permeabilized (cytoplasmic), U87 cells + IFNγ
[50] = molecular target: HLA-DR as expressed by cancer cell lines (human); assay: flow cytometry, permeabilized (cytoplasmic), HT29 cells + IFNγ
[51] = molecular target: HLA-DR as expressed by cancer cell lines (human); assay: flow cytometry, permeabilized (cytoplasmic), Lovo cells + IFNγ
[52] = molecular target: HLA-DR as expressed by cancer cell lines (human); assay: flow cytometry, permeabilized (cytoplasmic), U118 cells + IFNγ
[53] = molecular target: HLA-DR as expressed by cancer cell lines (human); assay: flow cytometry, permeabilized (cytoplasmic), Capan cells + IFNγ
[54] = molecular target: HLA-DR as expressed by cancer cell lines (human); assay: flow cytometry, permeabilized (cytoplasmic), FSCCL cells + IFNγ
[55] = molecular target: HLA-DR as expressed by cancer cell lines (human); assay: flow cytometry, permeabilized (cytoplasmic), KMS11 cells + IFNγ
[56] = molecular target: HLA-DR as expressed by cancer cell lines (human); assay: flow cytometry, permeabilized (cytoplasmic), Moser cells + IFNγ
[57] = molecular target: HLA-DR as expressed by cancer cell lines (human); assay: flow cytometry, permeabilized (cytoplasmic), TU118 cells + IFNγ
[58] = molecular target: HLA-DR as expressed by cancer cell lines (human); assay: flow cytometry, permeabilized (cytoplasmic), Aspc-1 cells + IFNγ
[59] = molecular target: HLA-DR as expressed by cancer cell lines (human); assay: flow cytometry, permeabilized (cytoplasmic), BxPC-3 cells + IFNγ
[60] = molecular target: HLA-DR as expressed by cancer cell lines (human); assay: flow cytometry, permeabilized (cytoplasmic), LS174T cells + IFNγ
[61] = molecular target: HLA-DR as expressed by cancer cell lines (human); assay: flow cytometry, permeabilized (cytoplasmic), Panc-1 cells + IFNγ

- fluorescence intensity (flow cytometry) [2]: 750
- fluorescence intensity (flow cytometry) [3]: 1930
- fluorescence intensity (flow cytometry) [4]: 41.9
- fluorescence intensity (flow cytometry) [5]: 3.3
- fluorescence intensity (flow cytometry) [6]: 7.3
- fluorescence intensity (flow cytometry) [7]: 6.1
- fluorescence intensity (flow cytometry) [8]: 1090
- fluorescence intensity (flow cytometry) [9]: 677
- fluorescence intensity (flow cytometry) [10]: 4
- fluorescence intensity (flow cytometry) [11]: 5.08
- fluorescence intensity (flow cytometry) [12]: 3.2
- fluorescence intensity (flow cytometry) [13]: 2.3
- fluorescence intensity (flow cytometry) [14]: 5.3
- fluorescence intensity (flow cytometry) [15]: 4.3
- fluorescence intensity (flow cytometry) [16]: 5.5
- fluorescence intensity (flow cytometry) [17]: 862
- fluorescence intensity (flow cytometry) [18]: 1810
- fluorescence intensity (flow cytometry) [19]: 172
- fluorescence intensity (flow cytometry) [20]: 298
- fluorescence intensity (flow cytometry) [21]: 276
- fluorescence intensity (flow cytometry) [22]: 197
- fluorescence intensity (flow cytometry) [23]: 66.2
- fluorescence intensity (flow cytometry) [24]: 1610
- fluorescence intensity (flow cytometry) [25]: 665
- fluorescence intensity (flow cytometry) [26]: 8.5
- fluorescence intensity (flow cytometry) [27]: 93.5
- fluorescence intensity (flow cytometry) [28]: 15.2
- fluorescence intensity (flow cytometry) [29]: 43.8
- fluorescence intensity (flow cytometry) [30]: 4.7
- fluorescence intensity (flow cytometry) [31]: 4.7
- fluorescence intensity (flow cytometry) [32]: 1060
- fluorescence intensity (flow cytometry) [33]: 2320
- fluorescence intensity (flow cytometry) [34]: 102
- fluorescence intensity (flow cytometry) [35]: 9.1
- fluorescence intensity (flow cytometry) [36]: 32.5
- fluorescence intensity (flow cytometry) [37]: 24.6
- fluorescence intensity (flow cytometry) [38]: 1470
- fluorescence intensity (flow cytometry) [39]: 879
- fluorescence intensity (flow cytometry) [40]: 18.2
- fluorescence intensity (flow cytometry) [41]: 23.6
- fluorescence intensity (flow cytometry) [42]: 11
- fluorescence intensity (flow cytometry) [43]: 14.2
- fluorescence intensity (flow cytometry) [44]: 23.4
- fluorescence intensity (flow cytometry) [45]: 22.7
- fluorescence intensity (flow cytometry) [46]: 11.6
- fluorescence intensity (flow cytometry) [47]: 1180
- fluorescence intensity (flow cytometry) [48]: 2420
- fluorescence intensity (flow cytometry) [49]: 429
- fluorescence intensity (flow cytometry) [50]: 638
- fluorescence intensity (flow cytometry) [51]: 989
- fluorescence intensity (flow cytometry) [52]: 352
- fluorescence intensity (flow cytometry) [53]: 253
- fluorescence intensity (flow cytometry) [54]: 2520
- fluorescence intensity (flow cytometry) [55]: 927
- fluorescence intensity (flow cytometry) [56]: 40.5
- fluorescence intensity (flow cytometry) [57]: 215
- fluorescence intensity (flow cytometry) [58]: 73.6
- fluorescence intensity (flow cytometry) [59]: 130
- fluorescence intensity (flow cytometry) [60]: 42.3
- fluorescence intensity (flow cytometry) [61]: 64.1
B1: hL243γ4P (humanized anti-HLA-DR antibody) (antibody, from a related filing, V domains shown)
VH: QVQLQQSGSELKKPGASVKVSCKASGFTFTNYGMNWVKQAPGQGLKWMGWINTYTREPTYADDFKGRFAFSLDTSVSTAYLQISSLKADDTAVYFCARDITAVVPTGFDYWGQGSLVTVSS
VL: DIQLTQSPSSLSASVGDRVTITCRASENIYSNLAWYRQKPGKAPKLLVFAASNLADGVPSRFSGSGSGTDYTFTISSLQPEDIATYYCQHFWTTPWAFGGGTKLQIKR
- increased killing in vitro after IFN-γ exposure, WSU-FSCCL NHL cells [1]: 58%
